Test results from the RNAGym collection of RNA variant scans (doi:10.1093/molbev/msab373).

B1: Azoarcus group I ribozyme (parent)
chain: GUGCCUUGCGCCGGGAAACCACGCAAGGGAUGGUGUCAAAUUCGGCGAAACCUAAGCGCCCGCCCGGGCGUAUGGCAACGCCGAGCCAAGCUUCGGCGCCUGCGCCGAUGAAGGUGUAGAGACUAGACGGCACCCACCUAAGGCAAACGCUAUGGUGAAGGCAUAGUCCAGGGAGUGGCGAAAGUCACACAAACCGG

Variants of: B1
Test: reverse-splicing fitness (ratio to wild type); higher = more active; in vitro selection; Mg2+ level not given
Procedure, shortened: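 An in vitro group I ribozyme library with randomized positions was T7-transcribed and gel-purified. In triplicate, 10 pmol RNA in EPPS pH 7.5 was reacted with 50 pmoles of a 30-nt RNA substrate for 1 h at 37 °C across several added MgCl2 levels (1–48 mM), then stopped with EDTA. Products were reverse transcribed from a substrate-complementary primer, PCR-amplified and sequenced (HiSeq 4000). Fitness is a variant's read proportion after selection over that before, normalised to wild type.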

| Variant | reverse-splicing fitness |
| --- | --- |
| C82U A120C A145C C150A C169A | 0.00632 |
| C82U A111U A145U C169G U176G | 0.0053 |
| C82U A111U A145U C169G U176A | 0.0101 |
| C82U A111U A145U C169G U176C | 0.0101 |
| C82U A111U C150G C169A | 0.00799 |
| C82U A111U C150G C169G | 0.00698 |
| C82U A111U C150G C169U | 0.0095 |
| C82U A120C A145C C169G | 0.00713 |
| C82U A120C A145C C169U | 0.0225 |
| C82U A120C A145C C169A | 0.00538 |
| C82U A120C A145C C150A C169A U176C | 0.00429 |
| C82U A120C A145C C150A C169A U176G | 0.00369 |
| C82U A120C A145C C150A C169A U176A | 0.00849 |
| C82U A111U C150G C169U U176C | 0.0106 |
| C82U A111U C150G C169U U176A | 0.00687 |
| C82U A111U C150G C169U U176G | 0.00604 |
| C82U A120C A145C C150U U176C | 0.0218 |
| C82U A120C A145C C150U U176A | 0.0173 |
| C82U A120C A145C C150U U176G | 0.00608 |
| C82U A111U C150A C169G U176C | 0.0217 |
| C82U A111U C150A C169G U176G | 0.00717 |

| Variant | reverse-splicing fitness |
| --- | --- |
| C82U A111U C150A C169G U176A | 0.0193 |
| C82U A111U A145U C150U C169G U176A | 0.0107 |
| C82U A111U A145U C150U C169G U176G | 0.00583 |
| C82U A111U A145U C150U C169G U176C | 0.0127 |
| C82U A111U C150U C169A | 0.00856 |
| C82U A111U C150U C169G | 0.00892 |
| C82U A111U C150U C169U | 0.0102 |
| C82U A111U C150A U176C | 0.0289 |
| C82U A111U C150A U176G | 0.00896 |
| C82U A111U C150A U176A | 0.0157 |
| C82U A111U A145U C150U C169U U176A | 0.0148 |
| C82U A111U A145U C150U C169U U176C | 0.0115 |
| C82U A111U A145U C150U C169U U176G | 0.00582 |
| C82U A111U A145U C150U C169A U176C | 0.00869 |
| C82U A111U A145U C150U C169A U176A | 0.0113 |
| C82U A111U A145U C150U C169A U176G | 0.00627 |
| C82U A111U C150U C169U U176A | 0.0149 |
| C82U A111U C150U C169U U176C | 0.0152 |
| C82U A111U C150U C169U U176G | 0.00625 |
| C82U A111U A145U C150G C169U U176A | 0.00893 |
| C82U A111U A145U C150G C169U U176C | 0.0107 |

| Variant | reverse-splicing fitness |
| --- | --- |
| C82U A111U A145U C150G C169U U176G | 0.00616 |
| C82U A111U C150A C169U U176G | 0.0075 |
| C82U A111U C150A C169U U176A | 0.0198 |
| C82U A111U C150A C169U U176C | 0.0152 |
| C82U A111U C169G U176C | 0.0183 |
| C82U A111U C169G U176A | 0.0162 |
| C82U A111U C169G U176G | 0.0052 |
| C82U A111U A145U C150U U176C | 0.103 |
| C82U A111U A145U C150U U176A | 0.0674 |
| C82U A111U A145U C150U U176G | 0.0202 |
| C82U A111U C169U U176G | 0.00559 |
| C82U A111U C169U U176C | 0.013 |
| C82U A111U C169U U176A | 0.0149 |
| C82U A111U A145U C150G U176G | 0.00449 |
| C82U A111U A145U C150G U176C | 0.019 |
| C82U A111U A145U C150G U176A | 0.0103 |
| C82U A120C A145C C150G C169G | 0.00584 |
| C82U A120C A145C C150G C169U | 0.0107 |
| C82U A120C A145C C150G C169A | 0.00723 |
| C82U A111U A145U C150U C169G | 0.00898 |
| C82U A111U A145U C150U C169A | 0.00818 |

| Variant | reverse-splicing fitness |
| --- | --- |
| C82U A111U A145U C150U C169U | 0.0104 |
| C82U A120C A145C C169G U176G | 0.00341 |
| C82U A120C A145C C169G U176A | 0.0129 |
| C82U A120C A145C C169G U176C | 0.00783 |
| C82U A111U A145U C150U | 0.183 |
| C82U A120C A145C C150U C169U U176C | 0.0109 |
| C82U A120C A145C C150U C169U U176A | 0.0137 |
| C82U A120C A145C C150U C169U U176G | 0.00398 |
| C82U A120C A145C U176C | 0.0651 |
| C82U A120C A145C U176A | 0.0438 |
| C82U A111U A145U C169U U176G | 0.00446 |
| C82U A111U A145U C169U U176C | 0.0127 |
| C82U A111U A145U C169U U176A | 0.0125 |
| C82U A111U C150U U176C | 0.0816 |
| C82U A111U C150U U176G | 0.0154 |
| C82U A111U C150U U176A | 0.0519 |
| C82U A111U A145U C150G C169G U176C | 0.00578 |
| C82U A111U A145U C150G C169G U176G | 0.00587 |
| C82U A120C A145C C169A U176G | 0.00299 |
| C82U A120C A145C C169A U176A | 0.00575 |
| C82U A120C A145C C169A U176C | 0.00368 |
